Assay [1] concerns the target T1, Cynomolgus glycopeptide (biotinylated) (biotinylated; glycosylated (glycan and sites not stated)).
T1 peptide: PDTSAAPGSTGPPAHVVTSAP
Description: SPR; avid; apparent KD, FIG. 19B. (In general: Surface plasmon resonance follows binding to a sensor surface in real time, without labels.)

Assay [2] deals with T2, Human glycopeptide (biotinylated) (biotinylated; glycosylated (glycan and sites not stated)).
T2 peptide: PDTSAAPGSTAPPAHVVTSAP
Description: SPR; avid; apparent KD, FIG. 19A.

These results are taken from US20220089772A1 (published 2022).

B1: monoclonal antibody GO2 (5F7) (antibody, V domains shown)
VH: QVQLQQSDAELVKPGASVKISCKASGYTFTDHAIHWVKQRPEQGLEWIGYFSPGNDDIHYNEKFEGKATLTADKSSSTAYMQLNSLTSEDSAVYFCKRSYDKDFDCWGQGTTLTVSS
VL: DIVMSQSPSSLGVSVGEKVTMSCKSSQSLLYSTNQKNYLAWYQQKPGQSPKLLIYWVSNRKSGVPDRFTGSGSGTDFTLTISSVKAEDLAVYYCQQYYRYPLTFGAGTKLELK
Take B1: the results for the Kd in assay [1] and in assay [2] were 56 nM and 253 nM, respectively.
